In patent CN113563464A (NAT CENTER FOR AIDS/STD CONTROL AND PREVENTION CHINA CDC, dated 2021):

B1: WJQ-C11 (antibody, V domains shown)
VH: EVQLVESGGGLVQPGGSLRLSCAASGFAFSTYEMNWVRQAPGKGLEWVSYIHNSGNPVYYADSVKGRFTISRDNAENSLYLQMNSLRAEDTAIYYCARALRYSTSWYDYWGQGTLVTVSS
VL: EIVLTQSPVSLSLSPGERATLSCRASQSVSSYLAWYQQKPGQAPRLFIYDASKRATGIPARFSGSGSGTDFTLTISSLEPEDFAVYYCQQRSNWPRTFGQGTKVEIKR
B2: SW-C11 (antibody, V domains shown)
VH: EVQLVESGGGLIQPGGSLRLSCAASEFIVSRNYMSWVRQAPGTGLEWVSVIYPGGSTFYADSVKGRFTISRDNSKNTLYLQMDSLRVEDTAVYYCARDYGDFYFDYWGQGTLVTVSS
VL: EIVMTQSPVSLSVSPGERATLSCRASQGVASNLAWYQQKAGQAPRLLIYGASTRATGIPARFSGSGSGTEFTLTISTLQSEDSAVYYCQQYNDRPRTFGQGTKLEIKR
B3: WJQ-G10 (antibody, V domains shown)
VH: EVQLVESGGGLVQPGESLRLSCAASGLTVSSNYMSWVRQAPGKGLEWVSVIYAGGSTFYADSVKGRFTISRDNSKNTLYLQMNSLRAEDMAIYYCARDLSYYGMDVWGQGTTVTVSS
VL: DIQLTQFPFSLSASVGDRVTITCRASQGISTYLAWYQQKPGRAPKLLIYAASTLQSGVPSRFSGSGSGTEFTLTISSLQPEDFATYYCQLLNSYPVHFGQGTKLEIKR

Each binder was assayed against SARS-Cov-2的生物素化RBD (RBD蛋白, NC_045512, 6×His-Avi标签) (SARS-CoV-2, UniProt P0DTC2 319-541).

Row | Binder | Kd
1 | B1 | 5.29 nM
2 | B2 | < 0.001 nM
3 | B3 | 1.37 nM
